Measured values from patent US20140087991A1, “PEPTIDE PRODRUGS” (The Johns Hopkins University, priority 2006, published 2014).

Assays:
FAP [1] = target: T1, FAP (Homo sapiens, UniProt Q12884); test: FAP gelatinase and collagenase assay with quenched (DQ) proteins; assay type: biochemical
T1 construct: the extracellular domain of FAP was cloned with a His-6 tag; made in house
T1 sequence (Q12884 26-760 limits assumed): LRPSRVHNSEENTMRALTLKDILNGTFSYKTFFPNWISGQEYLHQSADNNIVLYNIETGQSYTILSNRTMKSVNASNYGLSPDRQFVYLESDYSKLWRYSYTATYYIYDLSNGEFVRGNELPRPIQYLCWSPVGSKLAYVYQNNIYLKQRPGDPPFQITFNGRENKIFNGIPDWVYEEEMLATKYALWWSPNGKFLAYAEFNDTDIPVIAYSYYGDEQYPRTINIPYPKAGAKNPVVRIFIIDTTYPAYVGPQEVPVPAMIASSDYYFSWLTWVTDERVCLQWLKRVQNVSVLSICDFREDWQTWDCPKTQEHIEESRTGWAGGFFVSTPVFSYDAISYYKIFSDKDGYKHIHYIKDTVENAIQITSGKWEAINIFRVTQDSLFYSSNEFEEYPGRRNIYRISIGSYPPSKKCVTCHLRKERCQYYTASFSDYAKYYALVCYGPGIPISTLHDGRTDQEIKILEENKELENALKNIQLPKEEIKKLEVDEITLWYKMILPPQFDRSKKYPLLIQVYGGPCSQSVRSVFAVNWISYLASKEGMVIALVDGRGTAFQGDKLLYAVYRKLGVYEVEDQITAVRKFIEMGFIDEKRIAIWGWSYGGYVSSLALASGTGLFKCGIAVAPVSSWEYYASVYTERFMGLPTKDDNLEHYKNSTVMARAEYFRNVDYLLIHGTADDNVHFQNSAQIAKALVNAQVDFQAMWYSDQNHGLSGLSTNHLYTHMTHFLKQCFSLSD
Procedure: Quenched gelatin and collagen conjugates were used to detect and confirm FAP's gelatinase and collagenase activity. DQ™ Gelatin from pig skin, DQ™ collagen, type IV from human placenta, DQ™ collagen, type I from bovine skin, all as fluorescent conjugates (Invitrogen, Rockville, Md.) were digested with FAP and digestion monitored on a fluorescence plate reader. Protein substrates were dissolved in reaction buffer (100 mM NaCl, 100 mM Tris, pH 7.8) to a final concentration of 100 μgs/ml. Trypsin digestion was used as a positive control. As a negative control the His tagged extra cellular domain of Prostate Specific Membrane Antigen (PSMA), which was similarly purified from S2 cells under the same conditions as FAP. Fluorescent quenched DQ™ Bovine Serum Albumin was used as a negative control for FAP protease activity.
Quenched forms of Gelatin and Collagen were used to confirm the gelatinase and collagenase activity of recombinant FAP. Quenching is achieved by labeling these proteins with the fluorophore FITC such that fluorescence signal from the intact protein is minimal due to is self-quenching by the fluorphore. Protein digestion releases FITC-labeled fragments that result in measurable increase in overall fluorescence signal from the reaction mixture. […] On a relative basis gelatin was digested ˜10-fold better by FAP than collagen I. MALDI analysis of digested fragments was performed to confirm hydrolysis.

FAP [2] = target: T1, FAP; test: LC-MS/MS cleavage map of FAP digest of 8.5 kDa recombinant human gelatin; assay type: biochemical; details: 8.5 kDa gelatin digest; for Normalized Ion Current: peak with lowest ion current assigned 1.0
Procedure: (§1) Human collagen I (Becton Dickinson, Franklin Lakes, N.J.) and recombinant human gelatins of 100 KDa and 8.5 KDa (Fibrogen, San Francisco, Calif.) were dissolved in reaction buffer to a final concentration of 100-300 μg/ml. 0.5-1 μg of FAP was added per 100 μgs of protein substrate. Digestion was done for 4-6 hrs at 37° C. As a positive control trypsin digestion was used. As a negative control, protein solutions were incubated either with BSA or buffer only. Peptide fragments of a size <30 KDa were purified using 30 KDa Microcon spin filter (Millipore, Billerica, Mass.).
(§2) Peptides obtained from FAP/gelatin digests were dried using a speedvac (Eppendorf), resuspended in LC/MS loading buffer (3% ACN, 0.1% formic acid), and analyzed using nano-flow LC/MS/MS on an Agilent 1100 series nano-LC system (Agilent) coupled to an LCQ Duo ion trap mass spectrometer (ThermoFinnigan). Peptides were pre-concentrated on a 5 mm Zorbax C18 trap column (Agilent) and then eluted onto a 100×0.075 mm custom-packed Biobasic C18 (ThermoElectron) reversed phase capillary column connected to a laser-pulled electrospray ionization emitter tip (New Objective) at a flowrate of 300 nl/min Peptides were eluted the nanospray source of the LCQ (Proxeon, Denmark) using the following gradient: 0% B at 0 min, 5% B at 8 min, 45% B at 50 min, 90% B at 55 min, 90% B at 60 min (B=0.1% formic acid in acetonitrile) at a spray voltage of 2.5 kV. The LCQ was operated in data-dependent mode using the Xcalibur software (ThermoFinnigan) in which every MS scan (400-1800 m/z) was followed by MS/MS scans (400-1800 m/z) on the 3 most intense ions using an isolation window of ±1.5 Da. Ions selected for MS/MS fragmentation were dynamically excluded for 30 s.
(§3) MS/MS data were searched against a collagen FASTA database using the SEQUEST search algorithm built into the Bioworks Browser (ThermoFinnigan) allowing for the variable modification of Methionine oxidation. Peptides were initially filtered in a charge dependent manner using an XCorr filter of 1.5, 2, and 2.5 for singly, doubly, and triply charged peptides. All MS/MS spectra used to identify peptides were manually inspected for validation of y and b-ion series. To quantify the relative abundance of each identified peptide we compared the ion current for each of the observed peptide parent ions from the MS spectra. The contribution of each parent ion to the total ion current was extracted and integrated over the peptide elution peak.
As Collagen I and Gelatin are currently the only known protein substrates for FAP, we needed to develop an alternative method to identify FAP-selective cleavage sites within these proteins. […] The masses of fragments <3 KDa were purified for MALDI spectra and again analyzed by FindPept tool. […]

FAP [3] = target: T1, FAP; test: LC-MS/MS cleavage map of FAP digest of 100 kDa recombinant human gelatin; assay type: biochemical; details: 100 kDa gelatin digest; for Percentage: share of all occurrences
Procedure: as §1, §2, §3
To resolve each particular mass fragment a Liquid Chromatograpy (LC) and Tandem mass spectroscopy (MS-MS) [LC-MS-MS] method was developed. Using this method, peptide fragments from FAP digests of the 8.5 kDa and 100 kDa recombinant gelatin were time-resolved by nano reverse phase LC (FIGS. 12 and 14) and then sequenced using an ion trap mass spectrometer operating in MS/MS mode. Initial methodological issues were worked out using the 8.5 kDa fragment before analyzing the entire 100 kDa protein. MS/MS spectra were searched against the 8.5 kDa and 100 kDa gelatin sequences using the SEQUEST algorithm with no cleavage specificity. Most of the identified cleavage sites in both sized gelatins occurred after Proline. However, FAP cleavage sites in these gelatins were not restricted to Proline alone. FAP was also found to cleave after Ala (e.g. A/A, A/G, A/P, A/R), Asp (e.g. D/G, D/T), Gly (e.g. G/A, G/E, G/L, G/Q, G/P, G/V), Glu (i.e., E/P), Lys (i.e., K/A, K/G), Ser (e.g. S/P) and Val (e.g. V/G).
To identify the most preferentially cleaved sites, we relatively quantified the abundance of each of the identified peptides by integrating the ion current generated by each peptide throughout the chromatogram. After identification of a peptide from a MS/MS spectrum, we extracted the ion current for the parent mass of the ion from the total MS ion chromatogram using a 1.5 Da tolerance window, and then integrated under the peak (FIGS. 12 and 14). […]

FAP [4] = target: T2, FAP (Homo sapiens, UniProt Q12884); details: previously demonstrated; cited from earlier work
T2 sequence (Q12884 1-760): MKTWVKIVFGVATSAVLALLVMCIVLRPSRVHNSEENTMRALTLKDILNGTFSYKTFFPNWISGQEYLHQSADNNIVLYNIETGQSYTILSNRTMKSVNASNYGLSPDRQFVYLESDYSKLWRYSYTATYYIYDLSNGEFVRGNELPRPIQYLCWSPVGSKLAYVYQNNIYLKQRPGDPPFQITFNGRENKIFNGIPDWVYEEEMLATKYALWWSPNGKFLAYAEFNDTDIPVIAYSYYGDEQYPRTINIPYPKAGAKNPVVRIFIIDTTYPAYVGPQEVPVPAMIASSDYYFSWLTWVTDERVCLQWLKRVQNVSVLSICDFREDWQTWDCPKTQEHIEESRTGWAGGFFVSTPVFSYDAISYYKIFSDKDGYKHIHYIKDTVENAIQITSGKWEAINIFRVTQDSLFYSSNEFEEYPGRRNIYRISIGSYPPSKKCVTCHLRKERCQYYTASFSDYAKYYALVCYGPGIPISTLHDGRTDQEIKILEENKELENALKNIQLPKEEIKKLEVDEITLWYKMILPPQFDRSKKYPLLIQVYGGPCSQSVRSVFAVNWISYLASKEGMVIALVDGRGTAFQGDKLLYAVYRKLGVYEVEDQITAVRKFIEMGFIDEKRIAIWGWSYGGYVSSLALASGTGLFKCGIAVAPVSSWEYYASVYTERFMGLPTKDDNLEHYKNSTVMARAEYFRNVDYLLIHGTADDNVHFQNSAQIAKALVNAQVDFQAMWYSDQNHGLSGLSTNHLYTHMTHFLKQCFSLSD

| Substance | Occurences (FAP [3]) | Percentage (FAP [3]) | further results |
| --- | --- | --- | --- |
| Gelatin | – | – | digestion by FAP relative to collagen I (FAP [1]): ~10 fold; hydrolysis of FITC-quenched protein by FAP (FAP [1]; 100 μgs/ml protein substrate): readily hydrolyzed |
| P.AGKDGEAGAQGPPGP.A: FAP cleavage fragment of 100 kDa and 8.5 kDa recombinant human gelatin, MH+ 1308.62 (PAGKDGEAGAQGPPGPA) | 2 | 0.95 | relative abundance of fragment by integrated ion current (FAP [2]): most abundantly identified fragment; Normalized Ion Current (FAP [2]): 234.8 |
| P.AGQDGRPGPPGPPGARGQAG.V: FAP cleavage fragment of 100 kDa and 8.5 kDa recombinant human gelatin, MH+ 1799.89 | 1 | 0.48 | Normalized Ion Current (FAP [2]): 1.0 |
| P.KGAAGEPGKAGERGVPGPPGAVGP.A: FAP cleavage fragment of 100 kDa and 8.5 kDa recombinant human gelatin, MH+ 2113.12 | 5 | 2.38 | Normalized Ion Current (FAP [2]): 46.8 |
| P.PGLAGPPGESGREGAPGAEGSPGRD.G: FAP cleavage fragment, 100 kDa recombinant human gelatin | 2 | 0.95 | – |
| P.PGPAGAPGDKGESGP.S: FAP cleavage fragment, 100 kDa recombinant human gelatin | 2 | 0.95 | – |
| P.QGFQGPPGEPGEPGASGP.M: FAP cleavage fragment, 100 kDa recombinant human gelatin | 2 | 0.95 | – |
| P.QGVRGEPGPPGP.A: FAP cleavage fragment, 100 kDa recombinant human gelatin | 3 | 1.43 | – |
| P.RGPPGSAGAPGKDGLNGLPGP.I: FAP cleavage fragment, 100 kDa recombinant human gelatin | 14 | 6.67 | – |
| P.SGEPGKQGPSGASGERGPPGP.M: FAP cleavage fragment, 100 kDa recombinant human gelatin | 4 | 1.90 | – |
| P.SGNAGPPGPPGP.A: FAP cleavage fragment, 100 kDa recombinant human gelatin | 14 | 6.67 | – |
| P.TGARGAPGDRGEPGPPGP.A: FAP cleavage fragment, 100 kDa recombinant human gelatin | 13 | 6.19 | – |
| P.VGPPGPPGPP.G: FAP cleavage fragment, 100 kDa recombinant human gelatin | 3 | 1.43 | – |
| P.VGPPGPPGPPGPPGPP.: C-terminal FAP cleavage fragment, 100 kDa recombinant human gelatin (PVGPPGPPGPPGPPGPP) | 19 | 9.05 | relative abundance of fragment by integrated ion current (FAP [3]): most abundantly identified fragment |
| P.VGVQGPPGP.A: FAP cleavage fragment, 100 kDa recombinant human gelatin | 3 | 1.43 | – |
| V.GPPGPPGPP.G: FAP cleavage fragment, 100 kDa recombinant human gelatin | 2 | 0.95 | – |
| fibronectin | – | – | cleavage by FAP (FAP [4]): not |
